Patent US20200297842A1 (published 2020)

Legend:
[1] = target: T1, Fc tagged human SIRPγ (ACRO # SIG-H5253) (human, UniProt Q9P1W8 29-360); assay: ELISA, plate-coated Fc tagged human SIRPγ
T1 construct: Bought protein; it includes the transmembrane and cytoplasmic part, which a soluble Fc fusion would not carry; also called Fc tagged human SIRP gamma; recombinant human SIRP gamma; not shown: Fc tag
Description: Fc tagged human SIRPγ (ACRO # SIG-H5253) is adsorbed to high-binding microtiter plates at a concentration of 1 μg/ml in phosphate buffered saline (PBS) overnight at 4° C. The coating solution is removed, the wells are washed and then blocked with 75% casein in PBS containing 0.5% Tween 20 (PBST) for 60 minutes at room temperature while shaking. Blocking solution is removed, the wells are washed and incubated for 60 minutes at room temperature while shaking with anti-SIRP mAbs diluted in PBST at a starting concentration of 30 μg/ml and reducing the concentration in 3-fold serial dilutions. Wells are washed three times with PBST and incubated for 60 minutes at room temperature while shaking with an HRP labeled donkey anti-mouse or anti-human secondary antibody (Jackson ImmonResearch Laboratories) diluted 1:10,000 in PBST. The wells are washed and then incubated with peroxidase substrate and the absorbance at 450 nm determined. The apparent affinities were calculated using a non-linear fit model (GraphPad Prism).

[2] = target: T2, human SIRPγ expressed on cells (human, UniProt Q9P1W8 29-387); assay: flow cytometry on Jurkat cells expressing SIRPγ, increasing mAb concentrations (FIG. 4A)
T2 construct: Endogenous SIRPγ on Jurkat T-ALL cells and on human CD3+ T cells; also called SIRPγ expressing Jurkat cells; Human T Cells Expressing SIRPγ
Description: FIG. 4A-FIG. 4B. Binding of SIRP mAbs to Jurkat T cells Expressing SIRPγ. Binding of SIRP1, SIRP2, SIRP3, SIRP4 and SIRP9 to Jurkat T-ALL cells was determined. Cells were incubated with increasing concentrations of antibody FIG. 4A; or 10 μg/ml of the anti-SIRP antibodies for 1 hr; FIG. 4B. Cells were washed and then incubated with Alexaflour 647-labelled secondary antibody for 1 hr. Cells were washed and antibody binding measured using flow cytometry.
Jurkat cells were incubated for 60 min at 37° C., 5% CO₂ with increasing concentrations of the anti-SIRP mAbs diluted in phosphate buffered saline (PBS), pH 7.2. Cells were then washed with PBS and incubated for an additional hour with Alexa Fluor-647 labeled donkey anti-mouse antibody (Jackson ImmunoResearch Laboratories) in PBS. Cells were washed and binding analyzed using a C6 Accuri Flow Cytometer (Becton Dickinson). Alternatively, the cells were incubated for 1 h at 37° C. with the saturating concentration of 10 μg/ml of SIRP mAbs in binding buffer containing 1 mM EDTA (Sigma Aldrich), 1% FBS (Biowest) in PBS (Corning). The cells were then washed and stained for 45 min under the same conditions with donkey anti-mouse IgG fluorescein isothiocyanate (FITC)-linked secondary antibody (Jackson ImmunoResearch Laboratories). The cells were then washed and analyzed by flow cytometry (Attune, Life Technologies).

T1 sequence (Q9P1W8 29-360 limits assumed): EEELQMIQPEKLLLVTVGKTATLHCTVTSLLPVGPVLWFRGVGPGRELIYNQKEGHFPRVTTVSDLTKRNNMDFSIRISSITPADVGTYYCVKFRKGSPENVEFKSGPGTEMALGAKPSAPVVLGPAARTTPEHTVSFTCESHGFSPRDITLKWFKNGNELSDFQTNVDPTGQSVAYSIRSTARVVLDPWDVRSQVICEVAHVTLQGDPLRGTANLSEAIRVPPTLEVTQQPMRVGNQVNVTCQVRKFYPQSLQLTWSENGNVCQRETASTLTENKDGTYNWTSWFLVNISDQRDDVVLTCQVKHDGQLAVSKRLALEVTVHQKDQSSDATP
T2 sequence (Q9P1W8 29-387): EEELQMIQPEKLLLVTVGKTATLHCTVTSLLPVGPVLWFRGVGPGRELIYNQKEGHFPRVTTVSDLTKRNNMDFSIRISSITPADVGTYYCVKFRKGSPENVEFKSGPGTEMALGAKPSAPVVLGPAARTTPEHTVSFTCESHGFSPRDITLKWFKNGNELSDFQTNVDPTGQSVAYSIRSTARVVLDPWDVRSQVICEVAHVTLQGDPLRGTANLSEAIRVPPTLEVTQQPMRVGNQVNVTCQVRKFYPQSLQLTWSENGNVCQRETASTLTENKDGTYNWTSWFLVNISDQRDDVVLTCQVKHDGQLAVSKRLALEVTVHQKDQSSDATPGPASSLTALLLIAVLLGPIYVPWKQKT

binding result [1]: no binding (tested: 30 µg/ml)
binding result [2]: no binding
B1: SIRP1 (antibody, mouse IgG1, kappa, V domains shown)
VH: QVQLQQSGAELMKPGASVKISCKATGYSFTKYWIEWVKQRPGHGLEWIGEILPGSVITNYNEKFKGKATFTADTSSNTVYMQLSSLTSEDSAVYYCTKWGLYDSDDGVDYWGQGTTLTVSS
VL: ENVLTQSPAIMSASLGEKVTMSCRASSGVNYMYWYQQKSDASPKLLIYYTSILAPGVPARFSGSGSGNSYSLTISSMEGEDAATYYCQQFTSSPYTFGGGTKLEIKR
notes: Hybridoma-derived mouse mAb
